The values below come from the DeepSol protein solubility set.

This data set in a line: soluble on expression in E. coli; label from the status in PepcDB or PDB records.
As to “MPLHVVEQPAFLVAVVPDMVGGRLSSHDKDLLGLARKLAGNDGAVLAVVFGEHKESAFDSAGVDRLLHLSGGEYDGYAPEQRILALRNLENQLAPRHWLFPDSRNGGGELGRRLAAALGERPAGRVWQVEDGRCIGRAGAGREDIQRALPRLLLAAAECAEPVSETRHEVRELHMAEQVARNLPRIEDLGPVAVDPA”, the “soluble on expression in E. coli” value was “not soluble”.
For “MAESYEEWKSFALKLDEETGAQEWKFDNSSPYFDAELISYRYTLLKRYRQQHRTLDLIYLLKEGLTYDIANIGHPMLFAATHVGTKKLIEDYIEEVSQSLAYIASSECITFQRKEKIEFFENCEKAYGQPALMFSGGATLGLFHTGVCKALIEQDLMPKVLSGSSAGAIMTGMLGISASEDIQNLLNGEQFFSDAFHFRKLRELIKGNGGIADVHYLKKFLIENLGDLTFEEAFKKSGLNINVAVAPYDATENPRIMNAIMTPNVLVWSAVLASCAVPVLFPPVRLTSKRYDGEHTPYMANTKWVDGSVRSDFPQERMARLYNLNYTIASQVNPHVVPFMQDDARRFRKDVLSWPERILRRQGKVLSMGLMDFTRQRLGAISPVRRLLDHGYGVVGQRYYGDVNIIAKYSLKHYAYTLQNPRPHLFKRLQREGERATWPKISSIETHARIGKTIQHCLEVLRFEEKKLEHHHHHH” the value was “not soluble”; for “MTNKREDVRNIAIIAHVDHGKTTLVDELLKQSGIFRENEHVDERAMDSNDIERERGITILAKNTAVDYKGTRINILDTPGHADFGGEVERIMKMVDGVVLVVDAYEGTMPQTRFVLKKALEQNLKPVVVVNKIDKPSARPEGVVDEVLDLFIELEANDEQLEFPVVYASAVNGTASLDPEKQDDNLQSLYETIIDYVPAPIDNSDEPLQFQVALLDYNDYVGRIGIGRVFRGKMRVGDNVSLIKLDGTVKNFRVTKIFGYFGLKRLEIEEAQAGDLIAVSGMEDINVGETVTPHDHQEALPVLRIDEPTLEMTFKVNNSPFAGREGDFVTARQIQERLNQQLETDVSLKVSNTDSPDTWVVAGRGELHLSILIENMRREGYELQVSKPQVIIKEIDGVMCEPFERVQCEVPQENAGAVIESLGARKGEMVDMTTTDNGLTRLIFNVPARGMIGYTTEFMSMTRGYGIINHTFEEFRPRIKAQIGGRRNGALISMDQGSASTYAILGLEDRGVNFMEPGTEVYEGMIVGEHNRENDLTVNITKTKHQTNVRSATKDQTQTMNRPRILTLEEALQFINDDELVVVTPESIRLRKKILNKNVREKEAKRIKQMMQENE”, “not soluble”; for “MNHLKEVYIDIRDEIFDALDAASLVDVEPLELESQLKDSVNILIEKKQLQISSLKRLDLVKALLDELKGLGPLQALVDNDDISDIMINGPSDIFIEINGKVEKSPIQFVNEKQLNTIAKRIASNVGRRIDESKPLCDARLEDGSR”, “not soluble”.
As to “MGSDKIHHHHHHMSDNLPKKQPRTAPPEARREQLIDATITAISTYGLSGTTLAKVTAEAGLSLGLVNFHFKSKEALLTATLTHLADEHRALWFTRSSQPDVSAADKLKLIVDAQFHAKICNRRKLSVWFAFFGESRPRKAYRELTGPLDEERQIATSRLCADIIAEGGYSGIDSDTVSAMLESLFDGFWLNILMYPDRFTRQSAKAQVLSYLRLCFPQHFTCLDAETFA”, the “soluble on expression in E. coli” value is “not soluble”.
In the case of “MEGFGMPKLIISGRGGSGKSTLVTLIAHTLKEQKKRVLVVDSDESNIGLSGILGIEPAEKTLMDYLGGKPRVMKKLRSMIRDGETEPELFREKFDLESLSQEFVCWVGSLGLMQIGKIDHAMEGCACPMGAVTRDFLNHVRLEEDQWVLVDTEAGVEHFGRGIVEGADAVVMVVDPSSDAVLLAEKAAKLTHEADKRFGVILNKIDEETEPILTELLTSEGNEIKGVLPYSPAITKMNLKGESLGAYAVKNEVDEIIRELMKCLEHHHHHH”, the “soluble on expression in E. coli” value is reported as “not soluble”.
To “MGHHHHHHSHMRDCCGMVSSGSLSSLKAAERTPGALFFSSSTPGRYYNYDSSSRPQSRSVMSDQCAGQWFLKACGLGEGDTEVFPTQHVVRALQTIFELNVQAFAGGAMGAVNGMQPHGVPDKSSVQSDEVWVGVVYGLAATMIQEVMHSFSHLSTICILAQKTSSTTKFLQGITQCHLVRL” belongs “not soluble”; to “MSHPALTQLRALRYFDAIPALEPHLLDWLLLEDSMTKRFEQQGKRVSVTLIREAFVGQSEVEEASGLLPSESRYWLREILLCADGEPWLAGRTVVPESTLCGPEQVLQHLGKTPLGRYLFTSSTLTRDFIEIGRDATLWGRRSRLRLSGKPLLLTELFLPASPLY”, “not soluble”; to “MSPRCANLALKHYLLKPVQRIPQYRLLLTDYLKNLIEDAGDYRDTQDALAVVVEVANHANDTMKQGDNFQKLMQIQYSLNGHHEIVQPGRVFLKEGILMKLSRKVMQPRMFFLFNDALLYTTPVQSGMYKLNNMLSLAGMKVRKPTQEAYQNELKIESVERSFILSASSATERDEWLEAISRAIEEYAKKRITFCPSRSLDEADSENKEEVSPLGSKAPIWIPDTRATMCMICTSEFTLTWRRHHCRACGKIVCQACSSNKYGLDYLKNQPARVCEHCFQELQKLDHQHSPRIGSPGNHKSPSSALSSVLHSIPSGRKQKKIPAALKEVSANTEDSSMSGYLYRSKGNKKPWKHFWFVIKNKVLYTYAASEVRSEI”, “soluble”.
To “MGHHHHHHSHMKIFKFTPENNLFYGYILEDMKTGFNILREIMVEGYRPSIARLYDAEDGTQHFTHFADGKCVLIFMAEGNPRIAKVTGEGIAEIVARYPQCQRVDSKLIETWFNNLNWGPDKVAAERVQILKTGNMGFTTEVSGCWSCIHEIYESVINRIRTEFPHADDITMLGGHSSHSYQNGTNMYFVYDYNVVDCKPEEEIDKYHNPLNKIICEETIRLGGSMVHHHGIGKHRVHWSKLEHGSAWALLEGLKKQFDPNGIMNTGTIYPIEK” belongs “not soluble”; to “MKSRRAFITDAGGDHGSMNTQATPSPQFYLTAPATCPYLPNQMERKVFTHLVGPRAPEMNDLLTQGGFRRSQNIAYRPACETCRACVSVRILTEQFQPTKSMRRVLAANSDVVATVHAAEPSTEQFALFRRYLDHRHQSGGMSDMSALDYAIMVEDTHVNTRIIEYRVREPGSGIDSSKRGELLAVALSDVMSDGLSMVYSFFNPELEKRSLGTFMIIDHITRTRALGLPHVYLGYWVDGSEKMGYKTRYHPQEHLTPRGWEIYSPKEELEHHHHHH”, “not soluble”; to “MAIPDYQAVMLPLLKYAGDGKEHHIRDAIEKLAEEFELSEEERKELLPSGQQAIFKNRIGWANTYLKKAGLLGSRKKGYFSITRRGLDVLREKPPSIDVSFLKRYKEFNEFYNKDKQVLIDKPDVPEAEGKRALDPEESLEIAYQKLHNELVSEIISTTKKCSPAFFESLVVDVLTKMGYGGSRVDAGKAIGKSHDGGIDGIIKEDRLGLDVIYIQAKRWEGTVSKPEIQKFAGALIGKKAKKGVFITTSSFSKEAIEYADFTGNIVLVDGEMLARLMIEYNVGVSRVKSYEVKKMDTDYFEDGVI”, “not soluble”.
To “MNVFQMRDKLKARLKHLDVEFKFDREEETLRIVRIDNHKGVTIKLNAIVAKYEEQKEKIIDEICYYVEEAIAQMGDEVINNVEDIQIMPVIRATSFDKETKEGHAFVLTEHTAETNIYYALDLGKSYRLIDENMLQTLNLTAQQVKEMSLFNVRKLECRYSTDEVKGNIFYFINTNDGYDASRILNTSFLNHIQHQCEGEMLVGVPHQDVLILADIRNKTGYDVMAHLTMEFFTKGLVPITSLSFGYDNGHLEPIFILGKNNKQK” belongs “not soluble”; to “MKRKHLSGKSIGIVFGTFAPMHVGHVDLITKEKRANDNVLVIVSGSNTQKDRGTRTGLSLNRRFRNVREIFYDDELIVVDKLDEADMPPYPEGWVPWVNRVKDLITKNTDGPEKITFYVGESEYVIELNRYYPQAQVELIECSVINISATEIRDNPIENWRFITKPFRRHFTRKVLVVGSASGGKTTLVKDLARTYNAPCSLEYAREYQEKYNVRDDELDTNDYIHLLTDQYAQTAEIIDNGQHSWLIFADTNSTVTKVYIDYYLKENISQEEFDLLDRLYQVTQAREKWDLIFVILPKSNYVDDGSRDMTMADNRTRDWFTKHLLDLLSPFKDKIVILVENCDSDSFFADNYHYAKKTIKERLHIEI”, “not soluble”.
For “MGSDKIHHHHHHMHYPPMIATTLPDGPEQTPLTAEIVLRYHLCWKHRDLDGVMALYHPDIQYHDFFQNRVLGHQELRDYVRACLPHEAGEDIVHSDRIRVDGSTAFIQYQVTVQGGDGLVAFQSSEAITVRDGLIWRVNEYATLVRQNGTGHANSGPRPATSRLGLSPRQLSTMAQDLEHYFRRQRPYLDPELDLQQVADASGYSRNQISYLLNQVLGQSFYRYVNQARLQHLMASLGDDSVEATIDELAFSAGFNSLSAFYKCFREHTGFTPKAYLKQISLRART”, the “soluble on expression in E. coli” value was “not soluble”.
For “MGSDKIHHHHHHMILDPILDMFRGKAVTIPPLDGAFRPNTRLDDAPTFAELTEPDNLLADGGRLLATSGNAIYSLAAGAEPKVIETFPSPITAQALAPSGDLTVALESGKLLTSGKEVSLPADLSCITALAYAEDGTLWLANGSAEHAPSQWAADLMKKGASGSLWKRDATGGAFRKVAGALAFPYGLLPLGGDVLVSESWRHQLIRFDGATGNRSTVLTHLPGYPARLASAGDGGAWLALFAPRNRLIEFVLQETHYRQDMIDQVPPAYWIAPALASNRSFLEPLQCGGIRTMGIHKPWSPSRSYGLVVRLDARMQPQFSLHSRANGTRHGICSVVEKAGRLFIASKGGDCVLDAGGF” the value was “not soluble”.
For “MGSDKIHHHHHHMRILFVTEYYPPIHMGGAEISLKILVNKLAKLGHEVTVITPNYTKYKTETEISKNLRVIRFKSWRYFLFKKQLRKISSEIYLRKKSSYYFQLNGYIKLSSFEIMKVVKELLQKEDFDVIHANNLESILGLSKLQVNTKVAHLRDFALLCWNRGLNNNGKLCEGCSLTNIRQCMGANYILGSALVHEINKRKNVLGKFDKILAISNFVKMEFVKRLNIPTEKISVLYNPITQEIVSNISKEEARQYLNLPEDKTIVLFVGTLTELKGAHLIPKIAKELPEHLFVVVGDGPLRKMFTEFPLENVLYVGYQPMEILRHYYKASDILLVPSLWHEPFGRVIIEGAANGCYVVGSDKGAIPEIIHWIGYGTSVPPQSKYFVEAIKNAPQTTKHEKLKIKIINYSHKYAEKFIKAIME” the value was “not soluble”; for “MKELTNEELRGIQLEQLKYIDRICRENGIEYTLAGGSLIGAIRHGGYIPWDDDIDIELTRPHYDHLISVLMDQLPNEKYALLHYKVRETYLPFAKLYDTRTSFTSKIDNLNRGTGVFLDIFPMDILPDNEEERQVFKKEFLKKAIQLTASNPHGLDFASSSKKIYFWGKLVLWMPQHIRFYGKYRILAEKLDEFMQKYRNSDNQLISYLYTGYKKAIFPKEIWEEYEDVKFEGLTARKLKNHEEYLTRQYGDYMKLEHHHHHH”, “not soluble”.
Consider “NSVLFPCKYASSGCEITLPHTEKAEHEELCEFRPYSCPCPGASCKWQGSLDAVMPHLMHQHKSITTLQGEDIVFLATDINLPGAVDWVMMQSCFGFHFMLVLEKQEKYDGHQQFFAIVQLIGTRKQAENFAYRLELNGHRRRLTWEATPRSIHEGIATAIMNSDCLVFDTSIAQLFAENGNLGINVTISMC”, for which the “soluble on expression in E. coli” value was “soluble”.
Take “MGSDKIHHHHHHMNHYVEGKLLIIGGAEDKKGECKILKRFIQEAGGRESRVVVLTAATEMPEQVGSEYKELFENLGAAEVQVLDIAERVSANRESISQELQKATGIFFTGGDQLRITGILGGTRLGRTLHNLYQRGVIIAGTSAGASVMSDTMIVGGEAGTPKKDTLTMAPGLGLLHSVVVDQHFAQRGRIGRLLTAIAQNPYVLGVGIDEDTSILVYSDGHFTVVGSQTVTVVDASPTMASNVSEISPGQALVLTPVLMHILSDGYRFDLKRRAASLNETPSGG”: the “soluble on expression in E. coli” value is “not soluble”.
